The values below come from patent US20190367620A1 (Merck KGaA, published 2019).

Experiment [1] addresses T1, human FGFR1b-IIIb extracellular domain with a HIS tag (human).
T1 construct: also called huFGFR1b-IIIb; hFGFR1b-IIIb
T1 chain: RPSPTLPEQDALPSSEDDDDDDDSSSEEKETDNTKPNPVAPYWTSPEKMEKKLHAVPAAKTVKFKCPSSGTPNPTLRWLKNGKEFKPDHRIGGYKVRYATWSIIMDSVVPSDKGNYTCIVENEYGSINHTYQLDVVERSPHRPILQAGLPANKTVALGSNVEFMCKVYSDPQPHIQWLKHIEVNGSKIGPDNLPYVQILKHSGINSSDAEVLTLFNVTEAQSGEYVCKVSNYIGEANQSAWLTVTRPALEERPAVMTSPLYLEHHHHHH
Briefly: SPR (BIAcore), SEEDbody format; target IIIb by paragraph 74 and paragraph 125, the table's title says IIIc. The protocol: Binding affinities of anti-FGFR1 antibodies to FGFR1 were measured by Surface Plasmon Resonance (SPR) using a GE Healthcare BIAcore 4000 instrument as follows. Goat anti-human Fc antibody (Jackson ImmunoResearch Laboratories #109-005-098) was first immobilized on BIAcore carboxymethylated dextran CM5 chip using direct coupling to free amino groups following the procedure described by the manufacturer. Antibodies were then captured on the CM5 biosensor chip to achieve approximately 200 response units (RU). Binding measurements were performed using the running HBS-EP+ buffer. A 2-fold dilution series of His-tagged FGFR1 proteins were injected at a flow rate of 30 μl/min at 25° C. Association rates (kₒₙ, per mol/s) and dissociation rates (koff, per s) were calculated using a simple 1:1 Langmuir binding model (Biacore 4000 Evaluation Software). The equilibrium dissociation constant (KD, mol) was calculated as the ratio of koff/kₒₙ.
The affinities to human FGFR1b-IIIb for the affinity matured clones reformatted as IgG and monovalent SEEDbodies were measured by BIAcore (using a protocol similar to the one described in Example 1.8) and compared to those of mAb #08 (Table 5).

For experiment [2], the target named is T2, human FGFR1b-IIIc extracellular domain with a HIS tag (human, UniProt P11362 22-376).
T2 construct: also called huFGFR1b-IIIc; hFGFR1b-IIIc
T2 sequence: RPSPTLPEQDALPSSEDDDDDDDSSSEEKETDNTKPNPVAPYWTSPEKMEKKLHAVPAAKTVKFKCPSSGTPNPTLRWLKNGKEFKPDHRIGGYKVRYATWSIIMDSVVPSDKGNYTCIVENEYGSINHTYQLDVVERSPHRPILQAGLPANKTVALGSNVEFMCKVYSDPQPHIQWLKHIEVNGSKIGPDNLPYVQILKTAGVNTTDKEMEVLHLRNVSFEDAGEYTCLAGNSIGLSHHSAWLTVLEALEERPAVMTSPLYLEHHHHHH
Briefly: ELISA, EC50 from OD450 curves, monovalent SEEDbody format. The protocol: The binding selectivity of the antibodies were tested by ELISA against the different FGFR family members: FGFR1, FGFR2, FGFR3 and FGFR4. Briefly plates were coated overnight with the different His6-tagged FGFR proteins, after blocking with 1% Bovine Serum albumin, 1 or 0.1 μg/ml of anti-FGFR1 antibodies were incubated for 1 h at room temperature. After washing, the bound antibodies were incubated for 1 h at room temperature with a peroxidase affiniPure F(ab′)2 Fragment goat anti-human Fc (Jackson ImmunoResearch Laboratories #109-036-098) and detection was performed using the TMB HRP Substrate solution (BioFx Lab # TMBW-1000-01).
The antibody #A08 both as an IgG1 (bivalent) and as a SEEDbody (monovalent), was affinity matured using the yeast display technology described in (Rhiel et al. 2014) and performing light chain shuffling from immunized OmniRats and naïve human library followed by CDR-H3 parsimonious mutagenesis. Following several sorting rounds, yeast clones were picked, unique clones were reformatted as described in Examples 1.6 and 3.1. The binding affinities of the anti-FGFR1 molecules against human FGFR1b-IIIb) and human FGFR1b-IIIc) were measured by ELISA using a similar protocol as described in Example 1.9. The OD450 was plotted against the antibody concentration and GraphPad Prism software was used to calculate EC₅₀ values (see FIG. 10). […] The best results were obtained with mAb #A02 and #C01 showing an EC50 improvement in both IgG1 and SEEDbody formats.

The next experiment has as its target FGFR1 on NCI-H520 cells (human, UniProt P11362 22-822). Briefly: cell-based or functional assay.

A value given as a limit tells only on which side of the number the result lay.

Sequence of FGFR1 on NCI-H520 cells (P11362 22-822): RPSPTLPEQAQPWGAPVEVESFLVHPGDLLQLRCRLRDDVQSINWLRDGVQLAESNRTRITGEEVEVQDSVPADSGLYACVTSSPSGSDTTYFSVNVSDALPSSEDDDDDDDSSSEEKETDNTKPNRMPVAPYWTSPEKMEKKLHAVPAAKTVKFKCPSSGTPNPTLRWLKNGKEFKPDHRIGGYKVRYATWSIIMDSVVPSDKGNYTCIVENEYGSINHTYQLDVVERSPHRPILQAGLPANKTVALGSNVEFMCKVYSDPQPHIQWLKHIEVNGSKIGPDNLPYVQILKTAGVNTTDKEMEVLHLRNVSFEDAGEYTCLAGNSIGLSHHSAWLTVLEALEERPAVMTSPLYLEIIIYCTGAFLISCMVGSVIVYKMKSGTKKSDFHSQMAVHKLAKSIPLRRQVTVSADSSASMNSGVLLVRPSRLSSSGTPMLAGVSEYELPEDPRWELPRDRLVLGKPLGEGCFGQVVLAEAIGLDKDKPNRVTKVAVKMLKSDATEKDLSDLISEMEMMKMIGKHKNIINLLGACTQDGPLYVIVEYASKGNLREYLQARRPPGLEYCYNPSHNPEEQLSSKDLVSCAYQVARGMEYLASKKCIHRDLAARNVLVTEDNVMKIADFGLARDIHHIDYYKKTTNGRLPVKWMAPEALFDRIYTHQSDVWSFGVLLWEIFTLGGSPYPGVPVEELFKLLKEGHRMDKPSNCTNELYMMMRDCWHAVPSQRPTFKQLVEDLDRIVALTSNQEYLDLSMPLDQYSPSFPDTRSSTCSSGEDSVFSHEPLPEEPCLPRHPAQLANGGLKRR

B1: #A02 SEEDbody (monovalent) (antibody)
heavy: QVQLQESGPGLVKPSGTLSLTCAVSGGSISSNNWWSWVRQPPGKGLEWIGEIYHSGSTSYNPSLKSRVTISVDKSKNQFSLKLSSVTAADTAVYYCARATDWFDLWGQGTLVTVSSASTKGPSVFPLAPSSKSTSGGTAALGCLVKDYFPEPVTVSWNSGALTSGVHTFPAVLQSSGLYSLSSVVTVPSSSLGTQTYICNVNHKPSNTKVDKRVEPKSCDKTHTCPPCPAPELLGGPSVFLFPPKPKDTLMISRTPEVTCVVVDVSHEDPEVKFNWYVDGVEVHNAKTKPREEQYNSTYRVVSVLTVLHQDWLNGKEYKCKVSNKALPAPIEKTISKAKGQPFRPEVHLLPPSREEMTKNQVSLTCLARGFYPKDIAVEWESNGQPENNYKTTPSRQEPSQGTTTFAVTSKLTVDKSRWQQGNVFSCSVMHEALHNHYTQKTISLSPG
chain: EPKSSDKTHTCPPCPAPELLGGPSVFLFPPKPKDTLMISRTPEVTCVVVDVSHEDPEVKFNWYVDGVEVHNAKTKPREEQYNSTYRVVSVLTVLHQDWLNGKEYKCKVSNKALPAPIEKTISKAKGQPREPQVYTLPPPSEELALNELVTLTCLVKGFYPSDIAVEWLQGSQELPREKYLTWAPVLDSDGSFFLYSILRVAAEDWKKGDTFSCSVMHEALHNHYTQKSLDRSPG
light: SYVLTQPPSVSVAPGQTARITCGGNNIGSESVHWYQQKPGQAPVLVVYDDSDRPSGIPERFSGSNSGNTATLTISRVEAGDEADYYCQVWDSTSDHRVFGGGTKLTVLGQPKAAPSVTLFPPSSEELQANKATLVCLISDFYPGAVTVAWKADSSPVKAGVETTTPSKQSNNKYAASSYLSLTPEQWKSHKSYSCQVTHEGSTVEKTVAPTECS
notes: also called #A02-SEED(AG)
B1 had a Kd in experiment [1] of 0.06 nM. In experiment [2], the binding result was “binds”.

B2: #C01 SEEDbody (monovalent) (antibody)
heavy: QVQLQESGPGLVKPSGTLSLTCAVSGGSISSNNWWSWVRQPPGKGLEWIGEIYHSGSTSYNPSLKSRVTISVDKSKNQFSLKLSSVTAADTAVYYCARATDWFDAWGQGTLVTVSSASTKGPSVFPLAPSSKSTSGGTAALGCLVKDYFPEPVTVSWNSGALTSGVHTFPAVLQSSGLYSLSSVVTVPSSSLGTQTYICNVNHKPSNTKVDKRVEPKSCDKTHTCPPCPAPELLGGPSVFLFPPKPKDTLMISRTPEVTCVVVDVSHEDPEVKFNWYVDGVEVHNAKTKPREEQYNSTYRVVSVLTVLHQDWLNGKEYKCKVSNKALPAPIEKTISKAKGQPFRPEVHLLPPSREEMTKNQVSLTCLARGFYPKDIAVEWESNGQPENNYKTTPSRQEPSQGTTTFAVTSKLTVDKSRWQQGNVFSCSVMHEALHNHYTQKTISLSPG
chain: EPKSSDKTHTCPPCPAPELLGGPSVFLFPPKPKDTLMISRTPEVTCVVVDVSHEDPEVKFNWYVDGVEVHNAKTKPREEQYNSTYRVVSVLTVLHQDWLNGKEYKCKVSNKALPAPIEKTISKAKGQPREPQVYTLPPPSEELALNELVTLTCLVKGFYPSDIAVEWLQGSQELPREKYLTWAPVLDSDGSFFLYSILRVAAEDWKKGDTFSCSVMHEALHNHYTQKSLDRSPG
light: SYVLTQPPSVSVAPGQTARITCGGNNIGSESVHWYQQKPGQAPVLVVYDDSDRPSGIPERFSGSNSGNTATLTISRVEAGDEADYYCQVWDSTSDHRVFGGGTKLTVLGQPKAAPSVTLFPPSSEELQANKATLVCLISDFYPGAVTVAWKADSSPVKAGVETTTPSKQSNNKYAASSYLSLTPEQWKSHKSYSCQVTHEGSTVEKTVAPTECS
notes: also called #C01-SEED(AG)
With B2, in experiment [1], binding was put at a Kd of 0.04 nM. In addition, the binding result in experiment [2] is listed as “binds”.

B3: monovalent SEEDbody #A08 (antibody)
heavy: EVQLQESGPGLVKPSGTLSLTCAVSGGSISSNNWWSWVRQPPGKGLEWIGEIYHSGSTSYNPSLKSRVTISVDKSKNQFSLKLSSVTAADTAVYYCARGTDWFDPWGQGTLVTVSSASTKGPSVFPLAPSSKSTSGGTAALGCLVKDYFPEPVTVSWNSGALTSGVHTFPAVLQSSGLYSLSSVVTVPSSSLGTQTYICNVNHKPSNTKVDKRVEPKSCDKTHTCPPCPAPELLGGPSVFLFPPKPKDTLMISRTPEVTCVVVDVSHEDPEVKFNWYVDGVEVHNAKTKPREEQYNSTYRVVSVLTVLHQDWLNGKEYKCKVSNKALPAPIEKTISKAKGQPFRPEVHLLPPSREEMTKNQVSLTCLARGFYPKDIAVEWESNGQPENNYKTTPSRQEPSQGTTTFAVTSKLTVDKSRWQQGNVFSCSVMHEALHNHYTQKTISLSPG
chain: EPKSSDKTHTCPPCPAPELLGGPSVFLFPPKPKDTLMISRTPEVTCVVVDVSHEDPEVKFNWYVDGVEVHNAKTKPREEQYNSTYRVVSVLTVLHQDWLNGKEYKCKVSNKALPAPIEKTISKAKGQPREPQVYTLPPPSEELALNELVTLTCLVKGFYPSDIAVEWLQGSQELPREKYLTWAPVLDSDGSFFLYSILRVAAEDWKKGDTFSCSVMHEALHNHYTQKSLDRSPG
light: SYVLTQPPSVSVAPGQTARITCGGNNIGSESVHWYQQKPGQAPVLVVYDDSDRPSGIPERFSGSNSGNTATLTISRVEAGDEADYYCQVWDSTSDHRVFGGGTKLTVLGQPKAAPSVTLFPPSSEELQANKATLVCLISDFYPGAVTVAWKADSSPVKAGVETTTPSKQSNNKYAASSYLSLTPEQWKSHKSYSCQVTHEGSTVEKTVAPTECS
notes: One-armed SEEDbody: full SEED(AG) heavy chain, partial hinge-CH2-CH3 SEED(GA) chain, lambda light chain; produced in CHO-LF cells (afucosylated); also called anti-FGFR1 SEEDbody; #A08 SEEDbody
On to B3, for which, in experiment [1], the equilibrium dissociation constant (Kd) was 0.08 nM. In the experiment with FGFR1 on NCI-H520 cells, the “IC50, pFGFR1 inhibition in NCI-H520 cells, FGF1, SEEDbody” value came out at 7e-08 M; the “IC50, pFGFR1 inhibition in NCI-H520 cells, FGF2, SEEDbody” value is 6e-09 M; the “IC50, pFGFR1 inhibition in NCI-H520 cells, non-stimulated, SEEDbody” value stood at 2e-08 M.

B4: #B10 SEEDbody (monovalent) (antibody)
heavy: QVQLQESGPGLVKPSGTLSLTCAVSGGSISSNNWWSWVRQPPGKGLEWIGEIYHSGSTSYNPSLKSRVTISVDKSKNQFSLKLSSVTAADTAVYYCARATDWYDPWGQGTLVTVSSASTKGPSVFPLAPSSKSTSGGTAALGCLVKDYFPEPVTVSWNSGALTSGVHTFPAVLQSSGLYSLSSVVTVPSSSLGTQTYICNVNHKPSNTKVDKRVEPKSCDKTHTCPPCPAPELLGGPSVFLFPPKPKDTLMISRTPEVTCVVVDVSHEDPEVKFNWYVDGVEVHNAKTKPREEQYNSTYRVVSVLTVLHQDWLNGKEYKCKVSNKALPAPIEKTISKAKGQPFRPEVHLLPPSREEMTKNQVSLTCLARGFYPKDIAVEWESNGQPENNYKTTPSRQEPSQGTTTFAVTSKLTVDKSRWQQGNVFSCSVMHEALHNHYTQKTISLSPG
chain: EPKSSDKTHTCPPCPAPELLGGPSVFLFPPKPKDTLMISRTPEVTCVVVDVSHEDPEVKFNWYVDGVEVHNAKTKPREEQYNSTYRVVSVLTVLHQDWLNGKEYKCKVSNKALPAPIEKTISKAKGQPREPQVYTLPPPSEELALNELVTLTCLVKGFYPSDIAVEWLQGSQELPREKYLTWAPVLDSDGSFFLYSILRVAAEDWKKGDTFSCSVMHEALHNHYTQKSLDRSPG
light: SYVLTQPPSVSVAPGQTARITCGGNNIGSESVHWYQQKPGQAPVLVVYDDSDRPSGIPERFSGSNSGNTATLTISRVEAGDEADYYCQVWDSTSDHRVFGGGTKLTVLGQPKAAPSVTLFPPSSEELQANKATLVCLISDFYPGAVTVAWKADSSPVKAGVETTTPSKQSNNKYAASSYLSLTPEQWKSHKSYSCQVTHEGSTVEKTVAPTECS
notes: also called #B10-SEED(AG)
As for B4, in experiment [1], the Kd turned out to be 0.02 nM. Also, in experiment [2], the binding result is “binds”.

B5: A05 SEEDbody (monovalent) (antibody, V domains shown)
VH: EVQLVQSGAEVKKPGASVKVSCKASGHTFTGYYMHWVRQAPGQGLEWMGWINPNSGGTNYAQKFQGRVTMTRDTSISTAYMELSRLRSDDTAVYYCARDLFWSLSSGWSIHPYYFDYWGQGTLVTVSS
VL: QSALTQPASVSGSPGQSITISCTGTSSDVGSYNLVSWYQQHPGKAPKLMIYGGSKRPSGVPDRFSGSKSGNTASLTISGLQAEDEADYYCSSYTYSGDVFGTGTKVTVL
For B5, in the experiment with FGFR1 on NCI-H520 cells, the “IC50, pFGFR1 inhibition in NCI-H520 cells, FGF1, SEEDbody” value was more than 1e-06 M; the “IC50, pFGFR1 inhibition in NCI-H520 cells, FGF2, SEEDbody” value is 4e-07 M; the “IC50, pFGFR1 inhibition in NCI-H520 cells, non-stimulated, SEEDbody” value is more than 1e-06 M.
